From the supplement of paper PMC10724198
± gives the standard deviation of the averaged measurements.

Test system: Saccharomyces cerevisiae
Experiment: protein stability index of tFT-peptide fusion (C-terminal peptide) (PSI (0-1 scale)); higher = more stable (slower turnover)
Settings: temperature: 30 C
Protocol: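 MPS profiling in S. cerevisiae of the yeast C-terminome library: the last 12 aa of each annotated ORF are fused to the C-terminus of a sfGFP-mCherry timer, after a GGGS linker. Cells are FACS-sorted into 8 mCherry/sfGFP bins and deep-sequenced. PSI runs from 0 (unstable) to 1 (stable); wild type and das1Δ backgrounds, two technical replicates each.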

[1] = genetic background: das1 deletion

Sequence	protein stability index [1]	protein stability index (genetic background: wild type)
CTSLLKGERKKE [RRT8 C-terminal 12 aa]	0.6656 ± 0.00077	0.685 ± 0.012
ARVASQLGQKKK [PRO3 C-terminal 12 aa]	0.6735 ± 0.0064	0.684 ± 0.014
KALIQRKGGKLE [RPL26A C-terminal 12 aa]	0.6757 ± 0.0023	0.688 ± 0.037
DECFCLARHEND [TDP1 C-terminal 12 aa]	0.7114 ± 0.0022	0.708 ± 0.023
NDINNSRPITRK [ARO80 C-terminal 12 aa]	0.682 ± 0.045	0.666 ± 0.03
TQLVQKALERFK [RIC1 C-terminal 12 aa]	0.734 ± 0.025	0.676 ± 0.084
NATYNDSESSLN [SPO13 C-terminal 12 aa]	0.727 ± 0.016	0.721 ± 0.0083
FSDWKNNNGPHK [IBA57 C-terminal 12 aa]	0.701 ± 0.02	0.71 ± 0.062
PFKERAVFLLVL [YDR524W-C C-terminal 12 aa]	0.523 ± 0.016	0.361 ± 0.0078
KQAIYTRAAASE [RPS25B C-terminal 12 aa]	0.682 ± 0.054	0.69 ± 0.0061
VTVSNVWFNQLQ [YPL197C C-terminal 12 aa]	0.70615 ± 0.00045	0.526 ± 0.014
KKKEDKGGLQRS [VHS3 C-terminal 12 aa]	0.6842 ± 0.0022	0.697 ± 0.061
LCHYLTPYMIIY [YOL106W C-terminal 12 aa]	0.456 ± 0.016	0.45 ± 0.011
VVNNRRQSRTPK [BLI1 C-terminal 12 aa]	0.707 ± 0.044	0.661 ± 0.0082
PLYSMVAGENSL [SPO23 C-terminal 12 aa]	0.678 ± 0.021	0.688 ± 0.023
ASPTCTPQNPCV [CAB4 C-terminal 12 aa]	0.706 ± 0.021	0.735 ± 0.062
LRSKGKRYDTRS [YJR018W C-terminal 12 aa]	0.7035 ± 0.0016	0.708 ± 0.024
LELLLAADYLSI [ELC1 C-terminal 12 aa]	0.698 ± 0.034	0.682 ± 0.049
QEAGAFTFNEDF [RNR2 C-terminal 12 aa]	0.726 ± 0.018	0.711 ± 0.0081
HERKRNKVLNTT [CMR3 C-terminal 12 aa]	0.704 ± 0.021	0.661 ± 0.043
SQLLLFGFGAMV [MDM32 C-terminal 12 aa]	0.6998 ± 0.0031	0.705 ± 0.031

Sequence	protein stability index [1]	protein stability index (genetic background: wild type)
ELLQSFSLVLTL [YKL153W C-terminal 12 aa]	0.64297 ± 0.00021	0.632 ± 0.024
SKLVKEYSVELR [MSF1 C-terminal 12 aa]	0.687 ± 0.019	0.663 ± 0.05
YSYSSPKYTFPC [YKL147C C-terminal 12 aa]	0.6967 ± 0.0022	0.669 ± 0.063
KELVKRRIVGEV [AEP3 C-terminal 12 aa]	0.6815 ± 0.0042	0.72 ± 0.064
CSGAAGKIYVCD [CDC40 C-terminal 12 aa]	0.6678 ± 0.005	0.723 ± 0.01
GIVYDFHKSDMY [LSM1 C-terminal 12 aa]	0.683 ± 0.036	0.696 ± 0.043
TGTSNSVLVIIT [YPL136W C-terminal 12 aa]	0.677 ± 0.013	0.684 ± 0.033
SLSARKINMRKV [KRE9 C-terminal 12 aa]	0.705 ± 0.033	0.644 ± 0.014
LVPEEEEETKDR [GRX5 C-terminal 12 aa]	0.7214 ± 0.0068	0.698 ± 0.033
DGFSVPITTFQT [CDC15 C-terminal 12 aa]	0.712 ± 0.011	0.709 ± 0.045
GKDITDQPCIDL [SSP2 C-terminal 12 aa]	0.7054 ± 0.00083	0.725 ± 0.058
LRKNRSLDERYF [YML057C-A C-terminal 12 aa]	0.7089 ± 0.0023	0.6568 ± 0.0029
LKKPRSGFHVIV [YFR006W C-terminal 12 aa]	0.69 ± 0.027	0.6371 ± 0.0052
DDNEPDEEANRA [RXT2 C-terminal 12 aa]	0.672 ± 0.012	0.6656 ± 0.0043
TNDRLQSILHDL [MEF2 C-terminal 12 aa]	0.7148 ± 0.0071	0.702 ± 0.013
DSQDMERMDSDS [YLR076C C-terminal 12 aa]	0.691 ± 0.035	0.745 ± 0.11
LYAFHQVGIHFS [DIM1 C-terminal 12 aa]	0.709 ± 0.032	0.685 ± 0.014
SWLYNFDELLWQ [ALG8 C-terminal 12 aa]	0.761 ± 0.011	0.727 ± 0.021
WLPELALLCALD [LAS21 C-terminal 12 aa]	0.614 ± 0.0098	0.633 ± 0.017
VESPTLFCVCTQ [YPR170C C-terminal 12 aa]	0.6115 ± 0.0024	0.66 ± 0.028
SNWARIFFCHHD [YDL186W C-terminal 12 aa]	0.75 ± 0.015	0.713 ± 0.028

Sequence	protein stability index [1]	protein stability index (genetic background: wild type)
LLLPITSSLLFI [MIN4 C-terminal 12 aa]	0.618 ± 0.011	0.62 ± 0.021
TKNTCIRRLSNQ [YLR031W C-terminal 12 aa]	0.709 ± 0.018	0.698 ± 0.036
QCPVCRSPLPPL [TUL1 C-terminal 12 aa]	0.714 ± 0.023	0.742 ± 0.013
PVVFHSGPVVWK [YLR415C C-terminal 12 aa]	0.72 ± 0.034	0.6969 ± 0.0058
NFGVSSSFSFKP [PEX3 C-terminal 12 aa]	0.7032 ± 0.003	0.7154 ± 0.0041
TPDVLAAGPQFE [PCK1 C-terminal 12 aa]	0.7065 ± 0.0036	0.6787 ± 0.0029
KSVPILLPQVCM [YIL059C C-terminal 12 aa]	0.5945 ± 0.0057	0.578 ± 0.0092
DYSRRVLRLMNE [WSC4 C-terminal 12 aa]	0.7058 ± 0.0028	0.5834 ± 0.0049
AKLSEGTSFRRK [RPS27A C-terminal 12 aa]	0.6952 ± 0.0023	0.681 ± 0.037
DSQHKHDYSHSG [DCK1 C-terminal 12 aa]	0.6787 ± 0.0061	0.715 ± 0.035
DYKTKRNPSVLH [ISU2 C-terminal 12 aa]	0.6878 ± 0.0024	0.7106 ± 0.0056
DMGKNLLQNKKF [ERG2 C-terminal 12 aa]	0.695 ± 0.039	0.695 ± 0.012
FEFEFFESCYNA [PET18 C-terminal 12 aa]	0.744 ± 0.019	0.744 ± 0.038
NLSEAIHDNNGS [NNK1 C-terminal 12 aa]	0.717 ± 0.019	0.7091 ± 0.00097
SVFGEAEEVTNW [MET2 C-terminal 12 aa]	0.701 ± 0.017	0.702 ± 0.031
SNGFKEWRKSLK [RAI1 C-terminal 12 aa]	0.6824 ± 0.0012	0.67 ± 0.02
ENRTMFLSKGKS [YPR172W C-terminal 12 aa]	0.701 ± 0.024	0.667 ± 0.016
THKKPGFENYSI [IRC13 C-terminal 12 aa]	0.70632 ± 0.00041	0.704 ± 0.017
PPAGIPPPPPLP [PAN1 C-terminal 12 aa]	0.719 ± 0.0093	0.711 ± 0.025
PYLEEAYSNLEE [PPX1 C-terminal 12 aa]	0.685 ± 0.0024	0.722 ± 0.048
KLMEAIFRIRTI [YKL106C-A C-terminal 12 aa]	0.7668 ± 0.0015	0.152 ± 0.0039

Sequence	protein stability index [1]	protein stability index (genetic background: wild type)
LETLKKKKKRNN [MAK5 C-terminal 12 aa]	0.711 ± 0.014	0.66348 ± 0.00034
RDVTDWWESREI [CCZ1 C-terminal 12 aa]	0.7553 ± 0.0041	0.7652 ± 0.0026
AMLKPSSKEGSP [COQ10 C-terminal 12 aa]	0.6955 ± 0.0028	0.718 ± 0.0063
QNRFISINKIFW [YDR133C C-terminal 12 aa]	0.7034 ± 0.0032	0.6671 ± 0.0016
SDDNNDENMDLD [SSE2 C-terminal 12 aa]	0.694 ± 0.014	0.663 ± 0.018
MITCLTAALKLN [AVT6 C-terminal 12 aa]	0.6868 ± 0.0041	0.174 ± 0.0018
IMLTLLMFTGAV [PLB3 C-terminal 12 aa]	0.402 ± 0.0044	0.396 ± 0.0091
FLSMTYASLVNK [YLR294C C-terminal 12 aa]	0.713 ± 0.022	0.706 ± 0.062
LNSIDPALISKY [AFT2 C-terminal 12 aa]	0.744 ± 0.035	0.741 ± 0.036
NNVPPIHPSLLH [NGR1 C-terminal 12 aa]	0.7115 ± 0.0066	0.695 ± 0.017
KNLADIHKIMGF [MSW1 C-terminal 12 aa]	0.6849 ± 0.00012	0.709 ± 0.052
EALPPCLQIFRP [YDR354C-A C-terminal 12 aa]	0.701 ± 0.0091	0.6739 ± 0.0039
LFQPIIVKPLRS [YHR007C-A C-terminal 12 aa]	0.599 ± 0.016	0.625 ± 0.023
EEEEEEGKEGDA [SCT1 C-terminal 12 aa]	0.684 ± 0.012	0.697 ± 0.0061
LMNAQSNETKLN [PTC6 C-terminal 12 aa]	0.7111 ± 0.0056	0.692 ± 0.033
RDFFFKNVCVKM [TBS1 C-terminal 12 aa]	0.623 ± 0.018	0.56 ± 0.0057
ATTNISVLQECV [VRL1 C-terminal 12 aa]	0.666 ± 0.018	0.642 ± 0.011
IKPSWENEKNIS [ARG2 C-terminal 12 aa]	0.69 ± 0.02	0.684 ± 0.028
VYGRNGNESHST [YGR050C C-terminal 12 aa]	0.701 ± 0.019	0.689 ± 0.017
